From patent publication CN117069831A (SHENZHEN BGI LIFE SCIENCE RES INSTITUTE, dated 2023)
Where a chain is given by its changes, count along the chain named.

B1: R-30 (VHH)
VHH: QVQLQESGGGLVQSGGSLRLSCTASGGIIRLNSMGWYRQAPGKQREPVATIVSDVGTNYADSVKGRFTISRDNAKNTIYLQMNSLKFEDTAVYYCVADRAFVLRGEYEYWGQGTQVTVSS
notes: also called 第一株RBD纳米抗体R-30
B2: S1-24 (VHH)
VHH: B1 VHH with T23A, I28V, I29S, P41Q, P47L, S53N, K75A, I78V, Q81L, Y94N
notes: also called 第四株RBD纳米抗体S1-24
B3: S1-51 (VHH)
VHH: B1 VHH with T23A, I28V, I29S, P47L, V52I, K75A, I78V
notes: also called 第三株RBD纳米抗体S1-51
B4: S1-28 (VHH)
VHH: B1 VHH with S14P, L85P
notes: also called 第二株RBD纳米抗体S1-28

What was measured:
非典SARS-CoV-1 spike RBD = biological target: T1, 非典SARS-CoV-1 spike RBD (SARS-CoV-1, UniProt P59594 306-527); assay: ELISA on coated antigen, anti HA HRP
T1 construct: domain: RBD; also called 非典病毒RBD; 非典SARS-CoV-1RBD

野生型SARS-CoV-2 S1抗原 = biological target: T2, 野生型SARS-CoV-2 S1抗原 (SARS-CoV-2, UniProt P0DTC2 16-685); assay: SPR, Biacore T200, antigen coupled to CM5 chip, nanobody as analyte
T2 construct: domain: S1; also called SARS-CoV-2S1野生型; S1抗原(义翘)

Binder	EC50 (非典SARS-CoV-1 spike RBD) [nM]	Kd (野生型SARS-CoV-2 S1抗原) [nM]
B1	14.7	~0.1
B2	49.3	~0.1
B3	19.2	~0.1
B4	11.4	~0.1
